The nature of the series: Isoelectric point of expressed clathrin heavy chain preparation. In kind it is physicochemical. Conditions: recombinant human clathrin isoform 2 heavy chain with 6His tag from E. coli. The source says:
The preparation yielded a protein with the following characteristics: […]

Data on one substance can be found in US11666664B2, “Self assembling molecules for targeted drug delivery” (The General Hospital Corporation, priority 2015, dated 2023).

On to “PE1130119-1: Clathrin human isoform 2 heavy chain expressed in E. coli, soluble protein with 6His tag”, for which the “Isoelectric Point” value is 5.67.
